Laboratory results published in US7514207B2, “Methods of screening for compounds that decrease phosphorylation of merlin and may be useful in cancer treatment” (Massachusetts Institute of Technology, priority 2001, dated 2009).

Legend:
merlin kinase = experiment: In-vitro merlin kinase assay with kinase inhibitors; type: biochemical; conditions: for concentration range inhibiting the merlin kinase: inhibition of the activity of the merlin kinase
[1] = molecular target: T1, GST-merlin pseudo-substrate (residues 478-535 of merlin fused to glutathione-S-transferase), P35240
T1 chain: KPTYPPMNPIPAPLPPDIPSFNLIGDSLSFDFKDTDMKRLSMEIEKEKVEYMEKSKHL

[2] = molecular target: merlin expressed from an inducible allele in the RT4-D6P2T cell line
[3] = system: phosphorylation of merlin induced by activated Rac or cdc42; experiment: In-vivo merlin phosphorylation in co-transfected NIH3T3 cells (western blot); type: cell-based; conditions: NIH3T3 cells co-transfected with merlin, activated Rac or cdc42 and the PAK2 AID
Method: In the in-vitro kinase assays where full-length merlin was used, cells transfected with merlin expression vectors were extracted, and merlin was immunoprecipitated using a commercially available antibody SC-331 (Santa Cruz) and Protein A-agarose beads. In the in-vivo studies, cells were transfected with various expression vectors and harvested after 48 hours into SDS-boiling buffer (10 mM Tris pH 7.5, 50 mM NaF, and 1% SDS). Cells were scraped off the plates and boiled for 5′. Protein concentration was determined by the BCA method (Pierce) and resolved by 9% SDS-PAGE and western blot analysis.
The inhibitory fragment in PAK2 resides between residues 82-146 (equivalent to the 83-149 AID of PAK1). […] To further investigate the role of PAK2 in induction of merlin phosphorylation, the ability of the AID to inhibit this activity was assessed. NIH3T3 cells were co-transfected with expression vectors for merlin, activated Rac, or cdc42 and the PAK2 AID.

Molecule: COC(=O)[C@@]1(O)C[C@H]2O[C@]1(C)n1c3ccccc3c3c4c(c5c6ccccc6n2c5c31)C(=O)NC4 [K252a]
- concentration range inhibiting the merlin kinase (merlin kinase): mM range

Molecule: CCCCCCOC(=O)[C@]1(O)C[C@@H]2O[C@@]1(C)n1c3ccccc3c3c4c(c5c6ccccc6n2c5c31)C(=O)NC4 [K-5720]
- concentration range inhibiting the merlin kinase (merlin kinase): mM range

Molecule: NCCNS(=O)(=O)c1cccc2cnccc12 [H9]
- concentration up to which no effect on the merlin kinase was seen (merlin kinase; no effect up to this concentration): > 1 mM

B1: PAK2 of NIH3T3 cell extracts (endogenous) (protein)
chain: SDNGELEDKPPAPPVRMSSTIFSTGGKDPLSANHSLKPLPSVPEEKKPRNKIISIFSGTEKGSKKKEKERPEISPPSDFEHTIHVGFDAVTGEFTGMPEQWARLLQTSNITKLEQKKNPQAVLDVLKFYDSNTVKQKYLSFTPPEKDGFPSGTPALNTKGSETSAVVTEEDDDDEDAAPPVIAPRPDHTKSIYTRSVIDPIPAPVGDSNVDSGAKSSDKQKKKAKMTDEEIMEKLRTIVSIGDPKKKYTRYEKIGQGASGTVFTATDVALGQEVAIKQINLQKQPKKELIINEILVMKELKNPNIVNFLDSYLVGDELFVVMEYLAGGSLTDVVTETCMDEAQIAAVCRECLQALEFLHANQVIHRDIKSDNVLLGMEGSVKLTDFGFCAQITPEQSKRSTMVGTPYWMAPEVVTRKAYGPKVDIWSLGIMAIEMVEGEPPYLNENPLRALYLIATNGTPELQNPEKLSPIFRDFLNRCLEMDVEKRGSAKELLQHPFLKLAKPLSSLTPLILAAKEAMKSNR
- kinase activity on the GST-merlin substrate after immunodepletion of PAK2 [1]: extracts immunodepleted for PAK2 (+PAK2 Ab) had a 2-3 fold reduction in kinase activity

B2: PAK3 (transfected) (protein)
chain: MSDGLDNEEKPPAPPLRMNSNNRDSSALNHSSKPLPMAPEEKNKKARLRSIFPGGGDKTNKKKEKERPEISLPSDFEHTIHVGFDAVTGEFTGIPEQWARLLQTSNITKLEQKKNPQAVLDVLKFYDSKETVNNQKYMSFTSGDKSAHGYIAAHPSSTKTASEPPLAPPVSEEEDEEEEEEEDENEPPPVIAPRPEHTKSIYTRSVVESIASPAVPNKEVTPPSAENANSSTLYRNTDRQRKKSKMTDEEILEKLRSIVSVGDPKKKYTRFEKIGQGASGTVYTALDIATGQEVAIKQMNLQQQPKKELIINEILVMRENKNPNIVNYLDSYLVGDELWVVMEYLAGGSLTDVVTETCMDEGQIAAVCRECLQALDFLHSNQVIHRDIKSDNILLGMDGSVKLTDFGFCAQITPEQSKRSTMVGTPYWMAPEVVTRKAYGPKVDIWSLGIMAIEMVEGEPPYLNENPLRALYLIATNGTPELQNPERLSAVFRDFLNRCLEMDVDRRGSAKELLQHPFLKLAKPLSSLTPLIIAAKEAIKNSSR
- phosphorylation of the pseudo-substrate in an in-vitro kinase assay [1]: Only extracts from cells transfected with PAK2 and PAK3 were able to effectively phosphorylate the pseudo-substrate

B3: PAK2 wild-type (transfected) (protein)
chain: MSDNGELEDKPPAPPVRMSSTIFSTGGKDPLSANHSLKPLPSVPEEKKPRHKIISIFSGTEKGSKKKEKERPEISPPSDFEHTIHVGFDAVTGEFTGMPEQWARLLQTSNITKLEQKKNPQAVLDVLKFYDSNTVKQKYLSFTPPEKDGFPSGTPALNAKGTEAPAVVTEEEDDDEETAPPVIAPRPDHTKSIYTRSVIDPVPAPVGDSHVDGAAKSLDKQKKKTKMTDEEIMEKLRTIVSIGDPKKKYTRYEKIGQGASGTVFTATDVALGQEVAIKQINLQKQPKKELIINEILVMKELKNPNIVNFLDSYLVGDELFVVMEYLAGGSLTDVVTETCMDEAQIAAVCRECLQALEFLHANQVIHRDIKSDNVLLGMEGSVKLTDFGFCAQITPEQSKRSTMVGTPYWMAPEVVTRKAYGPKVDIWSLGIMAIEMVEGEPPYLNENPLRALYLIATNGTPELQNPEKLSPIFRDFLNRCLEMDVEKRGSAKELLQHPFLKLAKPLSSLTPLIMAAKEAMKSNR
- phosphorylation of the pseudo-substrate in an in-vitro kinase assay [1]: Only extracts from cells transfected with PAK2 and PAK3 were able to effectively phosphorylate the pseudo-substrate

B4: endogenous PAK1 of RT4 cells (protein)
chain: SNNGLDVQDKPPAPPMRNTSTMIGAGSKDPGTLNHGSKPLPPNPEEKKKKDRFYRSILAGDKTNKKKEKERPEISLPSDFEHTIHVGFDAVTGEFTGMPEQWARLLQTSNITKSEQKKNPQAVLDVLEFYNSKKTSNSQKYMSFTDKSAEDYNSSNTLNVKTVSETPAVPPVSEDEDDDDDATPPPVIAPRPEHTKSVYTRSVIEPLPVTPTRDVATSPISPTENNTTPPDALTRNTEKQKKKPKMSDEEILEKLRSIVSVGDPKKKYTRFEKIGQGASGTVYTAMDVATGQEVAIKQMNLQQQPKKELIINEILVMRENKNPNIVNYLDSYLVGDELWVVMEYLAGGSLTDVVTETCMDEGQIAAVCRECLQALEFLHSNQVIHRDIKSDNILLGMDGSVKLTDFGFCAQITPEQSKRSTMVGTPYWMAPEVVTRKAYGPKVDIWSLGIMAIEMIEGEPPYLNENPLRALYLIATNGTPELQNPEKLSAIFRDFLNRCLEMDVEKRGSAKELLQHQFLKIAKPLSSLTPLIAAAKEATKNNH
- phosphorylation status (activation) of PAK1 by 2-dimensional protein analysis [2]: The basal levels of activated PAK1 were reduced under conditions of high merlin expression compared to conditions of low merlin expression

B5: PAK2 AID: auto-inhibitory domain of PAK2, residues 82-146, expressed from pcDNA3; dominant negative fragment (protein)
chain: HTIHVGFDAVTGEFTGMPEQWARLLQTSNITKLEQKKNPQAVLDVLKFYDSNTVKQKYLSFTPPE
- decrease in the ratio of hyper-phosphorylated to hypo-phosphorylated merlin [3]: 3-4 fold

B6: PAK1 (transfected) (protein)
chain: MSNNGLDIQDKPPAPPMRNTSTMIGAGSKDAGTLNHGSKPLPPNPEEKKKKDRFYRSILPGDKTNKKKEKERPEISLPSDFEHTIHVGFDAVTGEFTGMPEQWARLLQTSNITKSEQKKNPQAVLDVLEFYNSKKTSNSQKYMSFTDKSAEDYNSSNALNVKAVSETPAVPPVSEDEDDDDDDATPPPVIAPRPEHTKSVYTRSVIEPLPVTPTRDVATSPISPTENNTTPPDALTRNTEKQKKKPKMSDEEILEKLRSIVSVGDPKKKYTRFEKIGQGASGTVYTAMDVATGQEVAIKQMNLQQQPKKELIINEILVMRENKNPNIVNYLDSYLVGDELWVVMEYLAGGSLTDVVTETCMDEGQIAAVCRECLQALEFLHSNQVIHRDIKSDNILLGMDGSVKLTDFGFCAQITPEQSKRSTMVGTPYWMAPEVVTRKAYGPKVDIWSLGIMAIEMIEGEPPYLNENPLRALYLIATNGTPELQNPEKLSAIFRDFLNRCLEMDVEKRGSAKELLQHQFLKIAKPLSSLTPLIAAAKEATKNNH
- phosphorylation of the pseudo-substrate in an in-vitro kinase assay [1]: Other kinases, which are known effectors of cdc42/Rac, including PAK1, LIM-kinase and JNK, did not induce phosphorylation of merlin in these assays
